The values below come from patent US20200317768A1 (published 2020).

Where a chain is given by its changes, count along the chain named. Numbers in names are those of the source.

B1: M103205H795-MY198/M103202L889-SK1 (antibody, human IgG1, kappa)
heavy: QVTLKESGPVLVKPTETLTLTCTVSGIDLSHDDISWVRQAPGKGLEWVGIISYAGSTYYASWAKGRLTISKDTSKNQVVLTMTNMDPVDTATYYCARGVPAYSHGGDLWGQGTLVTVSSASTKGPSVFPLAPSSKSTSGGTAALGCLVKDYFPEPVTVSWNSGALTSGVHTFPAVLQSSGLYSLSSVVTVPSSSLGTQTYICNVNHKPSNTKVDKKVEPKSCDKTHTCPPCPAPELLNGPVVFLFPPKPKDTLMISRTPEVTCVVVDVSDEDPEVKFNWYVDGVEVHNAKTKPREEQYNSTYRVVSVLTVLHQDWLNGKEYKCKVSNKALPKPIEKTISKAKGQPREPQVYTLPPSREEMTKNQVSLTCLVKGFYPSDIAVEWESNGQPENNYKTTPMVLDSDGSFFLYSKLTVDKSRWQQGNVFSCSVMHEALHNHYTQKSLSLSP
light: DIVMTQSPATLSLSPGERATLSCTSSQSVYHANWLSWFQQKPGQPPKLLIYWASTLAYGVPSRFSGSGSGTDFTLTISSLQPEDAATYYCAGGYGGGRYAFGQGTKVEIKRTVAAPSVFIFPPSDEQLKSGTASVVCLLNNFYPREAKVQWKVDNALQSGNSQESVTEQDSKDSTYSLSSTLTLSKADYEKHKVYACEVTHQGLSSPVTKSFNRGEC
notes: Substitutions introduced into M103205H795-SG1; expressed with M103202L889-SK1 as light chain
B2: M103205H795-MY199/M103202L889-SK1 (antibody, human IgG1, kappa)
heavy: B1 heavy with V241S, D270E, M398P
light: B1 light
notes: as for B1
B3: M103205H795-MY202/M103202L889-SK1 (antibody, human IgG1, kappa)
heavy: B1 heavy with M398P
light: B1 light
notes: as for B1
B4: M103205H795-MY200/M103202L889-SK1 (antibody, human IgG1, kappa)
heavy: B1 heavy with D270E, M398P
light: B1 light
notes: as for B1
B5: M103205H795-MY201/M103202L889-SK1 (antibody, human IgG1, kappa)
heavy: B1 heavy with V241S, M398P
light: B1 light
notes: also called MS1032LO06-MY201
B6: GpH7-B3 variant S267H/GpL16-k0 (antibody, human IgG1, kappa)
heavy: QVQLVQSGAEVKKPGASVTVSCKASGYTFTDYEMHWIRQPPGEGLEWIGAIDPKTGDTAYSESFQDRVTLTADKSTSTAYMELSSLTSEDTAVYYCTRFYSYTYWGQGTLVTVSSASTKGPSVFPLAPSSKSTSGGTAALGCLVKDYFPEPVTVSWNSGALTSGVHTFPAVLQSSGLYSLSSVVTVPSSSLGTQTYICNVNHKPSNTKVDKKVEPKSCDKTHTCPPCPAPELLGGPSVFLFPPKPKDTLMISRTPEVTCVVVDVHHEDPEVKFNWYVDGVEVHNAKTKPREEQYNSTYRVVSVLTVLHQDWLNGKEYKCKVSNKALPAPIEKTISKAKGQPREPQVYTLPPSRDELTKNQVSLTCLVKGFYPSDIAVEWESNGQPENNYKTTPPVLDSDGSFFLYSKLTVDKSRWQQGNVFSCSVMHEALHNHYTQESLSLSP
light: DIVMTQSPLSLPVTPGEPASISCQASESLVHSNRNTYLHWYLQKPGQSPQLLIYKVSNRFSGVPDRFSGSGSGTDFTLKISRVEAEDVGVYYCSQNTHVPPTFGQGTKVEIERTVAAPSVFIFPPSDEQLKSGTASVVCLLNNFYPREAKVQWKVDNALQSGNSQESVTEQDSKDSTYSLSSTLTLSKADYEKHKVYACEVTHQGLSSPVTKSFNRGEC
B7: GpH7-B3 variant S298L/GpL16-k0 (antibody, human IgG1, kappa)
heavy: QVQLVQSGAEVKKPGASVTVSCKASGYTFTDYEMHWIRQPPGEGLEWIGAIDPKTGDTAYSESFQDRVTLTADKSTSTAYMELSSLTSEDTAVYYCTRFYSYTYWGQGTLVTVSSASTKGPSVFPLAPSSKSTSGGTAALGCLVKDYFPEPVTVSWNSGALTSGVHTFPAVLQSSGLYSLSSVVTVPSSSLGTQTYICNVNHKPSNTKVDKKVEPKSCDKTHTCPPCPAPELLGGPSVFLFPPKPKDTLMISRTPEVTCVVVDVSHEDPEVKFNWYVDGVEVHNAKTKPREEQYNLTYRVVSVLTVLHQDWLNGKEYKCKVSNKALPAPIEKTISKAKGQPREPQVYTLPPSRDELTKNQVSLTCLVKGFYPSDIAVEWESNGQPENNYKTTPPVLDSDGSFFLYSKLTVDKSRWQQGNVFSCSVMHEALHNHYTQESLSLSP
light: B6 light
B8: GpH7-B3 variant S267L/GpL16-k0 (antibody, human IgG1, kappa)
heavy: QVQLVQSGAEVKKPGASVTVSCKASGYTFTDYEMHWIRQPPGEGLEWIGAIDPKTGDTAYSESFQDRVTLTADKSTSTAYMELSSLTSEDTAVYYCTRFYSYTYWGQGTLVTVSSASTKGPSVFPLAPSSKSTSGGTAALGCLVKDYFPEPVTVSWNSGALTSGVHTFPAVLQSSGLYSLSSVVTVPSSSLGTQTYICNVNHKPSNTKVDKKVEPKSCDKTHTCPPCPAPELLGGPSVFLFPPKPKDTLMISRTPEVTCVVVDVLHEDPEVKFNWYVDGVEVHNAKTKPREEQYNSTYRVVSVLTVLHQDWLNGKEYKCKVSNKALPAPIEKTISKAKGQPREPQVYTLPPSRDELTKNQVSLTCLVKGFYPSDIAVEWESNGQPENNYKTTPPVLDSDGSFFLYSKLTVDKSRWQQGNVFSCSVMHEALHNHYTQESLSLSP
light: B6 light

T9 sequence (P08637 17-208 F176V): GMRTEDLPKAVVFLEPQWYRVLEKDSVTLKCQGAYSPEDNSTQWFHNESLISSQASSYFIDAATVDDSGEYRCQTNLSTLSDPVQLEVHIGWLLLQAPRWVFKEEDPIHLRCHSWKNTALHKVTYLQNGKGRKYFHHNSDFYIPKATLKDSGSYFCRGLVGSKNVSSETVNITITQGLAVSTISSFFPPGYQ

One experiment has as its target T1, cynomolgus monkey FcγRIIa1 extracellular domain, C-terminal His-tag (cynomolgus monkey).
T1 construct: also called cyno FcγRIIa1; cynoFcgRIIa1
T1 chain: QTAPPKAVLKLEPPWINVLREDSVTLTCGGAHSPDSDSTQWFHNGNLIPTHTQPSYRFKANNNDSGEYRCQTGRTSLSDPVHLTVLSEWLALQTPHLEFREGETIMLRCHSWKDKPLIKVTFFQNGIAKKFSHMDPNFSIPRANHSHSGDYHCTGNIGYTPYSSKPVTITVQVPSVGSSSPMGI
Briefly: SPR (Biacore), antibody captured, FcgR analyte. The protocol: (§1) The kinetic analysis of interactions between these antibodies and FcγR was carried out using BIACORE® T200 or BIACORE® 4000 (GE Healthcare). HBS-EP+ (GE Healthcare) was used as the running buffer, and the measurement temperature was set to 25° C. A chip produced by immobilizing Protein A. Protein A/G or mouse anti-human IgG kappa light chain (BD Biosciences) onto a Series S Sensor Chip CM4 or CM5 (GE Healthcare) by the amine-coupling method was used. […] After the measurement, the antibody captured on the chip was washed off by allowing reaction with 10 mM glycine-HCl, pH1.5 and 25 mM NaOH so that the chip was regenerated and used repeatedly. The sensorgrams obtained as measurement results were analyzed by the 1:1 Langmuir binding model using the BIACORE® Evaluation Software to calculate the binding rate constant ka (L/mol/s) and dissociation rate constant kd (l/s), and the dissociation constant KD (mol/L) was calculated from these values. […] Regarding such interactions, KD values were calculated using the following 1:1 binding model described in BIACORE® T100 Software Handbook BR1006-48 Edition AE.
(§2) The behavior of interacting molecules according to the 1:1 binding model on BIACORE® can be described by Equation 1: Req=C·R max/(KD+C)+RI, wherein, Req is a plot of steady-state binding levels to analyte concentration. C is concentration, RI is bulk refractive index contribution in the sample, and Rmax is analyte binding capacity of the surface. When this equation is rearranged, KD can be expressed as Equation 2: KD=C·Rmax/(Req−RI)−C. KD can be calculated by substituting the values of Rmax, RI, and C into Equation 1 or Equation 2. From the current measurement conditions, RI=0, C=2 μmol/L can be used.
By Kd is commonly meant the equilibrium constant for the complex coming apart. For B1, the affinity, expressed as Kd, was 440 nM.
In turn, B2 displayed a Kd of 19000 nM.
The same measure, in the same setting: to B3 belongs 860 nM.
In turn, B4 had a Kd of 1700 nM.
The molecule B5 had a Kd of 14000 nM.

The target in the next experiment is T2, cynomolgus monkey FcγRIIa2 extracellular domain, C-terminal His-tag (cynomolgus monkey).
T2 construct: also called cyno FcγRIIa2; cynoFcgRIIa2
T2 chain: T1 chain with P95T, T121A, I127K, A128S, K130N, D135N, R142Q
Nature of the experiment: SPR (Biacore), antibody captured, FcgR analyte. The protocol:
as §1, §2
In the case of B1, the affinity, expressed as Kd, was 350 nM.
Regarding B2, binding was characterised by a dissociation constant (Kd) of 2000 nM.
On the same count and under the same terms, the result for B3 reads 640 nM; that for B4, 1500 nM; that for B5, 1400 nM.

The next experiment addresses T3, cynomolgus monkey FcγRIIa3 extracellular domain, C-terminal His-tag (cynomolgus monkey).
T3 construct: also called cyno FcγRIIa3; cynoFcgRIIa3
T3 chain: T1 chain with P95T, T121A, A128S, H133P, D135N
Nature of the experiment: SPR (Biacore), antibody captured, FcgR analyte. The procedure: as §1, §2
Take B1: the Kd amounted to 1400 nM.
In turn, B2 had a Kd of 12000 nM.
Consider B3, for which binding was put at a Kd of 22000 nM.
B4 gave a dissociation constant Kd of 5000 nM.
B5 displayed a Kd of 39000 nM.

The next experiment addresses T4, cynomolgus monkey FcγRIIb extracellular domain, C-terminal His-tag (cynomolgus monkey).
T4 construct: also called cyno FcγRIIb; cynoFcγRIIb
T4 chain: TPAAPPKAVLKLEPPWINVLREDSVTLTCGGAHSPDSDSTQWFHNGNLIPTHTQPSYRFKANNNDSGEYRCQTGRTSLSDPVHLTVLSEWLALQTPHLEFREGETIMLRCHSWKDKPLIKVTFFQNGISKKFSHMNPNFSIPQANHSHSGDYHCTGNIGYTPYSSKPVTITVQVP
Briefly: SPR (Biacore), antibody captured, FcgR analyte. The protocol: as §1, §2
In turn, B1 gave a Kd of 240 nM.
As for B2, the Kd is 1100 nM.
B3 showed a Kd of 460 nM.
For B4, binding was characterised by a dissociation constant (Kd) of 1100 nM.
Same read-out and setting: the result for B5 reads 430 nM.

The target of the next experiment is T5, cynomolgus monkey FcγRIIIaS extracellular domain, C-terminal His-tag (cynomolgus monkey, UniProt Q8SPW2 21-206 at identity 1.00)).
T5 construct: also called cyno FcγRIIIaS; cynoFcγRIIIaS
T5 chain: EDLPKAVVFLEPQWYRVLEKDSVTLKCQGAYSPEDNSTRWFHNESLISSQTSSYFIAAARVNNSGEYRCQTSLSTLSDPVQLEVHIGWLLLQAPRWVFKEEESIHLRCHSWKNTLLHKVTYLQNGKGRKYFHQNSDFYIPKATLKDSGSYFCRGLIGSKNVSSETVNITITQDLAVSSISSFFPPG
Briefly: SPR (Biacore), antibody captured, FcgR analyte. The protocol: as §1, §2
In general terms: Surface plasmon resonance follows binding to a sensor surface in real time, without labels.
B1: the Kd stood at 2700 nM.
Take B2: the Kd worked out at 4100 nM.
Take B3: the Kd came out at 4000 nM.
The molecule B4 displayed a Kd of 4400 nM.
Same read-out and setting: the result for B5 reads 5700 nM.

Another experiment concerns the target T6, human FcγRIIaH extracellular domain, C-terminal His-tag (human, UniProt P12318 34-217).
T6 construct: also called human FcγRIIa (type H); FcgRIIaH
T6 sequence: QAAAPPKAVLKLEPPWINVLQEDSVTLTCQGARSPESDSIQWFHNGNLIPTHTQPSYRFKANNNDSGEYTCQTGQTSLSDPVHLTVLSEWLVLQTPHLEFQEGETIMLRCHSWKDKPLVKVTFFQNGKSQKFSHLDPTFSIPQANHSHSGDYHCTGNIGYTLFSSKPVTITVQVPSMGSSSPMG
Nature of the experiment: SPR (Biacore), antibody captured, FcgR analyte. The procedure:
as §1, §2
Consider B1, for which the Kd amounted to 580 nM.
Regarding B2, binding was put at a Kd of 11000 nM.
On to B3, for which the dissociation constant Kd was found to be 12000 nM.
Molecule B4 came in with a Kd of 1700 nM.
For the molecule B5, the equilibrium dissociation constant (Kd) is 910 nM.

A further experiment deals with T7, human FcγRIIaR extracellular domain, C-terminal His-tag (human, UniProt P12318 34-217).
T7 construct: also called human FcγRIIa (type R); FcgRIIaR
T7 chain: T6 sequence with H134R
Nature of the experiment: SPR (Biacore), antibody captured, FcgR analyte. The procedure:
as §1, §2
Regarding B1, the Kd was found to be 800 nM.
For B2, the affinity, expressed as Kd, was 2800 nM.
In turn, B3 registered a Kd of 1200 nM.
As to B4, the Kd is 27000 nM.
On the same count and under the same terms, the result for B5 reads 1900 nM.

The target of a further experiment is T8, human FcγRIIb extracellular domain, C-terminal His-tag (human, UniProt P31994 43-217).
T8 construct: also called human FcgRIIb; FcgRIIb
T8 sequence: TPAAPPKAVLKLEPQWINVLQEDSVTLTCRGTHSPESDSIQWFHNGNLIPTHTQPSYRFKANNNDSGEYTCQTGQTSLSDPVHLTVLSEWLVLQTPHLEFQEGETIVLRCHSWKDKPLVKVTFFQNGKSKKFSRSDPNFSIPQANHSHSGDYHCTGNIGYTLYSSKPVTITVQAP
Nature of the experiment: SPR (Biacore), antibody captured, FcgR analyte. The protocol:
as §1, §2
In turn, B1 registered a Kd of 420 nM.
For B2, the Kd was found to be 1900 nM.
The molecule B3 yielded a Kd of 710 nM.
Still for that read-out and setting: the result for B4 reads 1400 nM; that for B5, 1100 nM.

A further experiment has as its target T9, human FcγRIIIaV extracellular domain, C-terminal His-tag (human, UniProt P08637 17-208).
T9 construct: also called human FcgRIIIaV; FcgRIIIaV
Nature of the experiment: SPR (Biacore), antibody captured, FcgR analyte. The protocol: as §1, §2
Regarding B1, the Kd is 8900 nM.
Same read-out and setting: the result for B2 reads 15000 nM; that for B3, 9400 nM; that for B4, 15000 nM.
Regarding B5, the affinity, expressed as Kd, was 24000 nM.

In a further experiment the target is T10, human FcγRIIaH extracellular domain, C-terminal His-tag (human, UniProt P12318 34-217).
T10 construct: also called human FcγRIIa (type H); FcgRIIaH
T10 sequence: T6 sequence
Nature of the experiment: SPR 25C; FcgR bound per captured antibody, relative to parent B3.
Regarding B6, the “Binding to human FcgRs (parent B3 = 100)” value is 27 parent B3 = 100.
For B7, the “Binding to human FcgRs (parent B3 = 100)” value turned out to be 99 parent B3 = 100.
Consider B8, for which the “Binding to human FcgRs (parent B3 = 100)” value is 63 parent B3 = 100.

Another experiment has as its target T11, human FcγRIIaR extracellular domain, C-terminal His-tag (human, UniProt P12318 34-217).
T11 construct: also called human FcγRIIa (type R); FcgRIIaR
T11 chain: T6 sequence with H134R
The experiment is described as above.
Consider B6, for which the “Binding to human FcgRs (parent B3 = 100)” value turned out to be 3 parent B3 = 100.
With B7, the “Binding to human FcgRs (parent B3 = 100)” value worked out at 71 parent B3 = 100.
On the same count and under the same terms, to B8 belongs 3 parent B3 = 100.

Another experiment deals with T12, human FcγRIIb extracellular domain, C-terminal His-tag (human, UniProt P31994 43-217).
T12 construct: also called FcgRIIb (human)
T12 sequence: T8 sequence
Described as above.
In the case of B6, the “Binding to human FcgRs (parent B3 = 100)” value was 42 parent B3 = 100.
As to B7, the “Binding to human FcgRs (parent B3 = 100)” value is 114 parent B3 = 100.
Consider B8, for which the “Binding to human FcgRs (parent B3 = 100)” value turned out to be 112 parent B3 = 100.
